Laboratory results: patent JP2014043405A (dated 2014)
Changes are numbered by the printed parent chain. In names and notes the source's numbering stands.

T1: ヒトFcγRIIa (H) (human, UniProt P12318 34-217)
T1 construct: extracellular domain; also called FcγRIIa H型
T1 sequence (looked up): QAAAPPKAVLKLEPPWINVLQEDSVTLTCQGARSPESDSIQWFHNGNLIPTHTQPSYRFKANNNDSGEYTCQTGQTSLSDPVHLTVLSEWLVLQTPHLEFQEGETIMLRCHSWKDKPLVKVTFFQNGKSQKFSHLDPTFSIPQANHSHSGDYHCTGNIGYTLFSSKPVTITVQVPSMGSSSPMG

T2: ヒトFcγRIIb (human, UniProt P31994 43-217)
T2 construct: extracellular domain; for the crystals it was expressed with kifunensine and its N-glycans trimmed with Endo F1; also called FcγRIIb細胞外領域
T2 sequence (looked up): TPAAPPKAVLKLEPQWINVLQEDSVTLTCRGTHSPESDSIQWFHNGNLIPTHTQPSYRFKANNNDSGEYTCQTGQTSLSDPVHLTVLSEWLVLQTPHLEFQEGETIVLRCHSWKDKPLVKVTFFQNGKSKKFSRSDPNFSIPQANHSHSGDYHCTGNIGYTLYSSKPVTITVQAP

T3: マウスFcγRIIb (mouse, UniProt P08101 30-210, limits assumed)
T3 construct: also called mouse FcγRIIb
T3 sequence (looked up): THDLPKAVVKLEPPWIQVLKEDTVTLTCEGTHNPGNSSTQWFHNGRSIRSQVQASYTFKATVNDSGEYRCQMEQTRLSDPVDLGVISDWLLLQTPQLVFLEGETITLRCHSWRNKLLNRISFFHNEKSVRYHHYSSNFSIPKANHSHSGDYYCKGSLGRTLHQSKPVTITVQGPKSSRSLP

T4: マウスFcγRIII (mouse, UniProt P08508 31-215, limits assumed)
T4 construct: also called mouse FcγRIII
T4 sequence (looked up): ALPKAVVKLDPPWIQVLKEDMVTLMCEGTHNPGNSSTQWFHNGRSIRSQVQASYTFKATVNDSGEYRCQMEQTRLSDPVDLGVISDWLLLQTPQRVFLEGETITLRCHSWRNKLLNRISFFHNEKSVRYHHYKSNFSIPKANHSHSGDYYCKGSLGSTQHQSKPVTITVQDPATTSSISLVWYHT

T5: マウスFcγRI (mouse, UniProt P26151 25-297, limits assumed)
T5 construct: also called mouse FcγRI
T5 sequence (looked up): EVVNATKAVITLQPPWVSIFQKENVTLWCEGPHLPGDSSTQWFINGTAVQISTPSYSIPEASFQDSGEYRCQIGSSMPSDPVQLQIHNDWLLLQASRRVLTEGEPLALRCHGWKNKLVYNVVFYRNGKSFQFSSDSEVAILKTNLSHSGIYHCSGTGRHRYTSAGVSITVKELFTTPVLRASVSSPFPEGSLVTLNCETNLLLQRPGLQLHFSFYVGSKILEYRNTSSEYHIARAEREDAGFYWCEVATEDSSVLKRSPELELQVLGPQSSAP

B1: IL6R-G4d/IL6R-L (antibody, human IgG4 S228P)
heavy: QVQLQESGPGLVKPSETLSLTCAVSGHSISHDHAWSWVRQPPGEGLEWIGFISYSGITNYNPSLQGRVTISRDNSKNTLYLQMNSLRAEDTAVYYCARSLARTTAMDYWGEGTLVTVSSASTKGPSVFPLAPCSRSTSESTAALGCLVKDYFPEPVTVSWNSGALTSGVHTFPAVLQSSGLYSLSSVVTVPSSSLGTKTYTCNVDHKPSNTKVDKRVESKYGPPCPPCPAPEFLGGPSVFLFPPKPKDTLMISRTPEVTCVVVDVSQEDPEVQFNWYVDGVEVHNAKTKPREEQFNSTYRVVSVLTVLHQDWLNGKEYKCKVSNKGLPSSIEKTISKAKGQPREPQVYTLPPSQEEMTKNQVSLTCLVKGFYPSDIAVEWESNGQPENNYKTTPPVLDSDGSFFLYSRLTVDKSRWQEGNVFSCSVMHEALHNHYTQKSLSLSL
light: DIQMTQSPSSLSASVGDRVTITCRASQDISSYLNWYQQKPGKAPKLLIYYTSRLHSGVPSRFSGSGSGTDFTFTISSLQPEDIATYYCQQGNTLPYTFGQGTKVEIK
B2: IL6R-BP253/IL6R-L (antibody, human IgG1)
heavy: QVQLQESGPGLVKPSETLSLTCAVSGHSISHDHAWSWVRQPPGEGLEWIGFISYSGITNYNPSLQGRVTISRDNSKNTLYLQMNSLRAEDTAVYYCARSLARTTAMDYWGEGTLVTVSSASTKGPSVFPLAPSSKSTSGGTAALGCLVKDYFPEPVTVSWNSGALTSGVHTFPAVLQSSGLYSLSSVVTVPSSSLGTQTYICNVNHKPSNTKVDKKVEPKSCDKTHTCPPCPAPELLGGPSVFLFPPKPKDTLMISRTPEVTCVVVDVEHEDPEVKFNWYVDGVEVHNAKTKPREEQYNSTYRVVSVLTVLHQDWLNGKEYKCKVSNKAFPAPIEKTISKAKGQPREPQVYTLPPSRDELTKNQVSLTCLVKGFYPSDIAVEWESNGQPENNYKTTPPVLDSDGSFFLYSKLTVDKSRWQQGNVFSCSVMHEALHNHYTQESLSLSP
light: B1 light
notes: comparison antibody with the known FcγRIIb-enhancing substitutions
B3: IL6R-BP423/IL6R-L (antibody, human IgG1)
heavy: B2 heavy with E235D, G239D, P240D, E269A, H270E, P273G, F330L, A332R
light: B1 light
B4: IL6R-BP455/IL6R-L (antibody, human IgG1)
heavy: B2 heavy with E235D, G239D, P240D, E269A, H270E, P273G, F330L, A332R, P398L
light: B1 light
B5: IL6R-BP267/IL6R-LにV266Mの改変が加えられた改変体 (antibody, human IgG1)
heavy: B2 heavy with E235D, G239D, P240D, V268M, E269S, H270E, P273G, F330L
light: B1 light
notes: also called IL6R-BP267 + V266M
B6: IL6R-BP464/IL6R-L (antibody, human IgG1)
heavy: B2 heavy with E235D, G239D, P240D, E269A, H270E, P273G, F330L, A332R, P398Y
light: B1 light
B7: IL6R-BP453/IL6R-L (antibody, human IgG1)
heavy: B2 heavy with E235D, G239D, P240D, E269A, H270E, P273G, F330L, A332R, P398I
light: B1 light
B8: IL6R-BP454/IL6R-L (antibody, human IgG1)
heavy: B2 heavy with E235D, G239D, P240D, E269A, H270E, P273G, F330L, A332R, P398K
light: B1 light
B9: IL6R-BP267/IL6R-LにV266Fの改変が加えられた改変体 (antibody, human IgG1)
heavy: B2 heavy with E235D, G239D, P240D, V268F, E269S, H270E, P273G, F330L
light: B1 light
notes: also called IL6R-BP267 + V266F
B10: IL6R-BP267/IL6R-LにS267Gの改変が加えられた改変体 (antibody, human IgG1)
heavy: B2 heavy with E235D, G239D, P240D, E269G, H270E, P273G, F330L
light: B1 light
notes: also called IL6R-BP267 + S267G
B11: IL6R-BP267/IL6R-LにV264Iの改変が加えられた改変体 (antibody, human IgG1)
heavy: B2 heavy with E235D, G239D, P240D, V266I, E269S, H270E, P273G, F330L
light: B1 light
notes: also called IL6R-BP267 + V264I
B12: IL6R-BP267/IL6R-LにE269Dの改変が加えられた改変体 (antibody, human IgG1)
heavy: B2 heavy with E235D, G239D, P240D, E269S, H270E, E271D, P273G, F330L
light: B1 light
notes: also called IL6R-BP267 + E269D
B13: IL6R-BP267/IL6R-LにS267Aの改変が加えられた改変体 (antibody, human IgG1)
heavy: B2 heavy with E235D, G239D, P240D, E269A, H270E, P273G, F330L
light: B1 light
notes: also called IL6R-BP267 + S267A
B14: IL6R-BP458/IL6R-L (antibody, human IgG1)
heavy: B2 heavy with E235D, G239D, P240D, E269A, H270E, P273G, F330L, A332R, P398Q
light: B1 light
B15: IL6R-BP449/IL6R-L (antibody, human IgG1)
heavy: B2 heavy with E235D, G239D, P240D, E269A, H270E, P273G, F330L, A332R, P398E
light: B1 light
B16: IL6R-BP267/IL6R-LにS267Eの改変が加えられた改変体 (antibody, human IgG1)
heavy: B2 heavy with E235D, G239D, P240D, H270E, P273G, F330L
light: B1 light
notes: also called IL6R-BP267 + S267E
B17: IL6R-BP448/IL6R-L (antibody, human IgG1)
heavy: B2 heavy with E235D, G239D, P240D, E269A, H270E, P273G, F330L, A332R, P398D
light: B1 light
B18: IL6R-BP459/IL6R-L (antibody, human IgG1)
heavy: B2 heavy with E235D, G239D, P240D, E269A, H270E, P273G, F330L, A332R, P398R
light: B1 light
B19: IL6R-BP450/IL6R-L (antibody, human IgG1)
heavy: B2 heavy with E235D, G239D, P240D, E269A, H270E, P273G, F330L, A332R, P398F
light: B1 light
B20: IL6R-BP456/IL6R-L (antibody, human IgG1)
heavy: B2 heavy with E235D, G239D, P240D, E269A, H270E, P273G, F330L, A332R, P398M
light: B1 light
B21: IL6R-BP473/IL6R-L (antibody)
chain 1: B2 heavy with E235D, G239D, P240D, E269S, H270D, P273G, Y298D, A329G, F330L, A332R
chain 2: not shown
B22: IL6R-BP493/IL6R-L (antibody)
chain 1: B2 heavy with P240D, V266I, E269A, H270E, P273G, Y298D, F330L
chain 2: not shown
B23: IL6R-BP231/IL6R-L (antibody)
chain 1: B2 heavy with G239D, P240D, E269S, H270D, P273G, Y298D, F330L, A332R
chain 2: not shown
B24: IL6R-BP479/IL6R-L (antibody)
chain 1: B2 heavy with E235D, G239D, P240D, V266I, V268L, E269A, H270E, P273G, F330L
chain 2: not shown
B25: IL6R-BP234/IL6R-L (antibody)
chain 1: QVQLQESGPGLVKPSETLSLTCAVSGHSISHDHAWSWVRQPPGEGLEWIGFISYSGITNYNPSLQGRVTISRDNSKNTLYLQMNSLRAEDTAVYYCARSLARTTAMDYWGEGTLVTVSSASTKGPSVFPLAPSSKSTSGGTAALGCLVKDYFPEPVTVSWNSGALTSGVHTFPAVLQSSGLYSLSSVVTVPSSSLGTQTYICNVNHKPSNTKVDKKVEPKSCDKTHTCPPCPAPDYLGDDSVFLFPPKPKDTLMISRTPEVTCVVVDVQDEDGEVKFNWYVDGVEVHNAKTKPREEQDNSTYRVVSVLTVLHQDWLNGKEYKCKVSNDALPKPIEKTISKAKGQPREPQVYTLPPSRDELTKNQVSLTCLVKGFYPSDIAVEWESNGQPENNYKTTPPVLDSDGSFFLYSKLTVDKSRWQQGNVFSCSVMHEALHNHYTQESLSLSP
chain 2: not shown
B26: Fv4-IgG1-F20 (antibody)
heavy: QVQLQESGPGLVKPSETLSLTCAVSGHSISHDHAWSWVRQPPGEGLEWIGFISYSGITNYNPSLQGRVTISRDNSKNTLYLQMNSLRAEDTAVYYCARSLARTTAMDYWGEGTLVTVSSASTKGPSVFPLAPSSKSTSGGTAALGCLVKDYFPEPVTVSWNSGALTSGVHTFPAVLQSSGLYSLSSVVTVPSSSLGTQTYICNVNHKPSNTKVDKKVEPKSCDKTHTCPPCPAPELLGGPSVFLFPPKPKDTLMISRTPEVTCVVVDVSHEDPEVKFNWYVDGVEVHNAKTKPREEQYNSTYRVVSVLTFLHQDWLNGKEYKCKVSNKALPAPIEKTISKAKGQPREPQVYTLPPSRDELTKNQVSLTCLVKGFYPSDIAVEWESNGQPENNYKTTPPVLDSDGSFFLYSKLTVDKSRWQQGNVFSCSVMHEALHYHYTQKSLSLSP
light: DIQMTQSPSSLSASVGDSVTITCQASTDISSHLNWYQQKPGKAPELLIYYGSHLLSGVPSRFSGSGSGTDFTFTISSLEAEDAATYYCGQGNRLPYTFGQGTKVEIERTVAAPSVFIFPPSDEQLKSGTASVVCLLNNFYPREAKVQWKVDNALQSGNSQESVTEQDSKDSTYSLSSTLTLSKADYEKHKVYACEVTHQGLSSPVTKSFNRGEC
notes: also called VH3-IgG1-F20/VL3-CK

These binders were tested against ヒトFcγRIa (human, UniProt P12314 16-292) (assay: SPR, KD).
Sequence of ヒトFcγRIa (P12314 16-292): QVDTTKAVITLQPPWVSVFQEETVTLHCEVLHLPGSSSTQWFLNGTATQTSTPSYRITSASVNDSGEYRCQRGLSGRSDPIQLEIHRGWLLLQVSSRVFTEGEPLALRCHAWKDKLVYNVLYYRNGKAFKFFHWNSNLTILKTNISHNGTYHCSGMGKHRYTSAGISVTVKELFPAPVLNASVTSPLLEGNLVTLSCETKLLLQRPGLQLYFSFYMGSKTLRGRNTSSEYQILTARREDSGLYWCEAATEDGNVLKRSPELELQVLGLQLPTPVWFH

binding result | Binder
binds | B1
binds | B2

The binders below were run against T1, ヒトFcγRIIa (H) (assay: SPR, KD).

binding result | Binder
binds | B1
binds | B2

What follows are binders tested against T2, ヒトFcγRIIb (assay: SPR, KD).

binding result | Binder
binds | B3
binds | B4
binds | B5
binds | B6
binds | B7
binds | B8
binds | B9
binds | B10
binds | B11
binds | B12
binds | B13
binds | B14
binds | B15
binds | B16
binds | B17
binds | B18
binds | B19
binds | B20

Each binder was assayed against T2, ヒトFcγRIIb (assay: SPR, KD; reference IL6R-BP230/IL6R-L).

fold enhancement of binding against IL6R-BP230/IL6R-L [fold] | Binder
1.2 | B21

The binders below were run against T2, ヒトFcγRIIb (assay: SPR; KD for FcγRIIaR divided by KD for FcγRIIb).

KD (IIaR)/KD (IIb) [ratio] | Binder
52.1 | B22
32.2 | B23
16.1 | B24
10 | B25

The binders below were run against T3, マウスFcγRIIb (assay: SPR, Biacore; antibody captured on immobilised mouse FcRn, FcγR as analyte, pH 7.4, 25C).

binding result | Binder
binds | B26

Each binder was assayed against T4, マウスFcγRIII in the same assay as above.

binding result | Binder
binds | B26

These binders were tested against T5, マウスFcγRI in the same assay as above.

binding result | Binder
binds | B26
